Assay results published in PMC12025923 (Cells, 2025).
Substitutions are numbered along the chain they refer to. Values belong to the binder of their own block, whether it stands above or below them. Primed or numbered codes have the meaning given here. Where no end group is shown, it is not given here. [ ]: non-standard residue; d: D form. FITC′ = fluorescein isothiocyanate label at the N-terminus; pS = N[C@@H](COP(=O)(O)O)C(=O)O

Experiments:
14-3-3γ-R57C-nLuc [1] = target: T1, 14-3-3γ-R57C-nLuc (human, UniProt P61981 2-247, R57C); experiment: degarelix 1 uM; apparent, Bmax set to wild-type
T1 sequence: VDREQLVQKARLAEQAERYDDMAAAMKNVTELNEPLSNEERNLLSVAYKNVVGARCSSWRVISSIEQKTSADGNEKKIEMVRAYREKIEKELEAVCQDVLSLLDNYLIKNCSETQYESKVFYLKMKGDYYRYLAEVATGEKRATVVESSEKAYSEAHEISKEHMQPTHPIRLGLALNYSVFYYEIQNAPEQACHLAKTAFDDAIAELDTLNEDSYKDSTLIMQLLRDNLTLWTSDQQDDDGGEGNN

14-3-3γ-R57C-nLuc [2] = target: T1, 14-3-3γ-R57C-nLuc; experiment: DMSO; apparent, Bmax set to wild-type
[3] = target: T2, wild-type 14-3-3γ-nLuc (His6-14-3-3γ-nLuc) (human, UniProt P61981 2-247); experiment: nafamostat 25 uM
T2 chain: T1 sequence with C56R

14-3-3γ-R57C-nLuc [4] = target: T1, 14-3-3γ-R57C-nLuc; experiment: nafamostat 25 uM; apparent, Bmax set to wild-type
[5] = target: T3, wild-type 14-3-3γ-nLuc (His6-14-3-3γ-nLuc) (human, UniProt P61981 2-247); experiment: FRET or BRET; in vitro BRET: 1 nM recombinant nLuc or 14-3-3γ-nLuc with increasing FITC-phosphopeptide in 20 mM Tris-HCl, 150 mM NaCl, 1 mg/mL BSA, 0.1% Tween 20; 250 nM furimazine; net BRET after subtraction of nLuc background; Kd from y = Bmax*x/(Kd + x); details: both partners purified
T3 construct: Size ~47.5 kDa as printed; The Nluc forward primer encodes a short linker (GGGGTRS, read from the primer) between 14-3-3γ and nLuc; also called wt 14-3-3γ-nLuc; 14-3-3γ-nLuc wt; source: E. coli Rosetta(DE3)pLysS, purified (Ni-NTA); not shown: nLuc (nanoluciferase), C-terminal, kept
T3 sequence (looked up): T1 sequence with C56R

14-3-3γ-R57C-nLuc [6] = target: T4, 14-3-3γ-R57C-nLuc (human, UniProt P61981 2-247, R57C); experiment: as above; details: both partners purified
T4 construct: 14-3-3γ (YWHAG), human, pathogenic patient variant R57C, site-directed mutant of the 14-3-3γ-nLuc plasmid; limits as m8; As m8 with R57C; source: E. coli Rosetta(DE3)pLysS, purified (Ni-NTA); not shown: nLuc (nanoluciferase), C-terminal, kept
T4 sequence (looked up): T1 sequence

14-3-3γ-R57G-nLuc = target: T5, 14-3-3γ-R57G-nLuc (human, UniProt P61981 2-247, R57G); experiment: as above; details: both partners purified
T5 construct: 14-3-3γ (YWHAG), human, pathogenic patient variant R57G, site-directed mutant of the 14-3-3γ-nLuc plasmid; limits as m8; As m8 with R57G; source: E. coli Rosetta(DE3)pLysS, purified (Ni-NTA); not shown: nLuc (nanoluciferase), C-terminal, kept
T5 sequence (looked up): T1 sequence with C56G

[7] = target: T2, wild-type 14-3-3γ-nLuc …; experiment: degarelix 1 uM
[8] = target: T3, wild-type 14-3-3γ-nLuc …; experiment: FRET or BRET; in vitro BRET competition: wt 14-3-3γ-nLuc and FITC-phosphopeptide with increasing doses of R18 peptide (Figure S2D); details: both partners purified

Kd (14-3-3γ-R57C-nLuc [1]): 25.2 nM
Kd (14-3-3γ-R57C-nLuc [2]): 431 nM
Kd [3]: 0.8 nM
Kd (14-3-3γ-R57C-nLuc [4]): 44.1 nM
Kd [5]: 0.74 nM
percent of the phosphopeptide binding reached at the highest peptide concentration (14-3-3γ-R57C-nLuc [6]): ~30%
percent of the phosphopeptide binding reached at the highest peptide concentration (14-3-3γ-R57G-nLuc): ~30%
Kd [7]: 0.89 nM
B1: FITC-ppLRRK2 (peptide)
peptide: {FITC′}-QRHSN[pS]LGPIFDGSGGGSGIKARAS[pS]SPVILVGTHLD
notes: leucine-rich repeat kinase 2 (LRRK2), human; also called FITC-LRRK2; source: synthetic peptide (AbClonal)

Kd (14-3-3γ-R57C-nLuc [1]): 22200 nM
Kd [3]: 75 nM
Kd (14-3-3γ-R57C-nLuc [4]): 5280 nM
Kd [5]: 84.3 nM
Kd [7]: 36.2 nM
B2: FITC-pTH (peptide)
peptide: {FITC′}-MPTPDATTPQAKGFRRAV[pS]ELDAKQAEAIMSPRFIGRRQSLIE
notes: also called phosphopeptide derived from tyrosine hydroxylase (TH); source: synthetic peptide (AbClonal)

binding result [8]: binds
B3: R18 peptide (peptide)
peptide: PHCVPRDLSWLDLEANMCLP
notes: Not labelled with FITC (only the phosphopeptides were); source: synthetic peptide (AbClonal)

Kd [5]: 47.5 nM
percent of the phosphopeptide binding reached at the highest peptide concentration (14-3-3γ-R57C-nLuc [6]): ~30%
percent of the phosphopeptide binding reached at the highest peptide concentration (14-3-3γ-R57G-nLuc): ~30%
B4: FITC-pSLP76 (peptide)
peptide: {FITC′}-FPQSA[pS]LPPYFS
notes: SLP76 (Lymphocyte cytosolic protein 2/LCP2), human; source: synthetic peptide (AbClonal)
